Measurements published in patent US20180051082A1.

Key:
[1] = target: cynomolgus FcRn (cynomolgus monkey) (UniProt Q8SPV9); experiment: BIACORE-based assay, antibody bound to FcRn at pH 6.0, residual bound antibody after adjustment to pH 7.4
human FcRn (human) = human FcRn (human) (UniProt P55899); experiment: as above

Chain of cynomolgus FcRn (cynomolgus monkey) (Q8SPV9 24-297): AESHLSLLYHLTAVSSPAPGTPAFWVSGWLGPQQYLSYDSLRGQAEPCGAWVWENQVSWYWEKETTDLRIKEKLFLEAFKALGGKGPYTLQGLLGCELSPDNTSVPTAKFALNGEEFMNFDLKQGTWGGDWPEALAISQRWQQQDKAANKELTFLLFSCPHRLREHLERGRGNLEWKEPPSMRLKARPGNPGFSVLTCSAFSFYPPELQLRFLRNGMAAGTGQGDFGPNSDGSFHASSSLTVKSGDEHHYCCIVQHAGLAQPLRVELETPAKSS

% Residual Binding at pH 7.4 [1]: 1.7% | % Residual Binding at pH 7.4 (human FcRn (human)): 2%
Substance: human IgG1 version of BMS-936558, designated BMS (antibody)
